Experimental data reported in ChEMBL document CHEMBL3864159, “Variation of the aryl substituent on the piperazine ring within the 4-(piperazin-1-yl)-2,6-di(pyrrolidin-1-yl)pyrimidine scaffold unveils potent, non-competitive inhibitors of the inflammatory caspases” (Bioorg Med Chem Lett, 2016).

Columns and labels:
[1] = compound: c1ccc(CCN2CCN(c3cc(N4CCCC4)nc(N4CCCC4)n3)CC2)cc1; experiment: (§1) Non-competitive inhibition of human recombinant N-terminal His-tagged DTT-activated caspase-1 expressed in Escherichia coli assessed as enzyme Vmax at 50 nM using Ac-WEHD-AMC as substrate preincubated for 30 mins followed by substrate addition by Michaelis-Menten plot analysis (reference value: 13162 +/- 1446 RFU/min)
[2] = compound: c1ccc(CCN2CCN(c3cc(N4CCCC4)nc(N4CCCC4)n3)CC2)cc1; experiment: as §1, with “500” for “50”
[3] = compound: c1ccc(CCN2CCN(c3cc(N4CCCC4)nc(N4CCCC4)n3)CC2)cc1; experiment: as §1, with “Km” for “Vmax”, “8.18” for “13162”, “2.9 uM)” for “1446 RFU/min)”
[4] = compound: c1ccc(CCN2CCN(c3cc(N4CCCC4)nc(N4CCCC4)n3)CC2)cc1; experiment: as §1, with “Km” for “Vmax”, “500” for “50”, “8.18” for “13162”, “2.9 uM)” for “1446 RFU/min)”

B1: Caspase-1 (Homo sapiens), P29466 (protein)
chain: MADKVLKEKRKLFIRSMGEGTINGLLDELLQTRVLNKEEMEKVKRENATVMDKTRALIDSVIPKGAQACQICITYICEEDSYLAGTLGLSADQTSGNYLNMQDSQGVLSSFPAPQAVQDNPAMPTSSGSEGNVKLCSLEEAQRIWKQKSAEIYPIMDKSSRTRLALIICNEEFDSIPRRTGAEVDITGMTMLLQNLGYSVDVKKNLTASDMTTELEAFAHRPEHKTSDSTFLVFMSHGIREGICGKKHSEQVPDILQLNAIFNMLNTKNCPSLKDKPKVIIIQACRGDSPGVVWFKDSVGVSGNLSLPTTEEFEDDAIKKAHIEKDFIAFCSSTPDNVSWRHPTMGSVFIGRLIEHMQEYACSCDVEEIFRKVRFSFEQPDGRAQMPTTERVTLTRCFYLFPGH
- Vmax [1]: 4440 RFU/min
- Vmax [2]: 2840 RFU/min
- Km [3]: 5.76 µM
- Km [4]: 5.75 µM
